Experimental findings from patent US20150374741A1, “METHODS FOR MAINTAINING POPULATION OF THERAPEUTIC CELLS IN TREATMENT SITE OF SUBJECT IN NEED OF CELL THERAPY” (DCB-USA LLC, priority 2013, published 2015) are described below.

This data set is described as follows: In vivo HA degradation tracked by Alexa Fluor 700 fluorescent signal (IVIS) in ischemic hindlimb. On the set-up: species or system mice. As to conditions: streptavidin alone injected into the hindlimb. As for the experimental part: Biotinylated HA was suspended in deionized water overnight, and Alexa Fluor 700-conjugated streptavidin (Invitrogen, Grand Island, N.Y., USA) was prepared according to the manufacturer's instructions. The streptavidin and biotinylated HA were then mixed and gently agitated at 4° C. This mixture was filtered through Amicon centrifugal filter units (molecular-weight cut off 100 kDa; Millipore, Billerica, Mass., USA) to exclude extra streptavidin. The final products were freeze-dried and stored at 4° C.
hMSCs were cultured on 10-cm culture dishes and maintained at 37° C. under an atmosphere of 5% CO2 in air. A total of 4×10^6 hMSCs were mixed with 200 μl of αMEM culture medium or 1% HA and then injected into the ischemic muscles of mice. Immediately and at various intervals after the injection, the mice were imaged using a Xenogen IVIS® Spectrum device and the corresponding filter sets. The fluorescent intensity was determined by calculating the number of photons within the manually drawn ROI, and the intensity was adjusted to exclude tissue autofluorescence. […]

On to “Alexa Fluor 700 labeled streptavidin: Alexa Fluor 700-conjugated streptavidin (Invitrogen), injected alone as label control”, for which the “time until fluorescence disappeared” value is at most 12 h.
